Laboratory results published in paper PMC4092090, “Investigation of a MMP-2 Activity-Dependent Anchoring Probe for Nuclear Imaging of Cancer” (PLoS ONE, 2014).
Where two headings read alike, the source gives them in different places.

Experiments:
Design in all cases: species or system mouse (Balb/c nu-nu)
[1] = test system: HT1080 tumor bearing mice; conditions: mouse, in vivo, iv; for Radioactivity biodistribution, Blood / Radioactivity biodistribution, Heart / Radioactivity biodistribution, Intestine / Radioactivity biodistribution, Kidneys / Radioactivity biodistribution, Liver / Radioactivity biodistribution, Lung / Radioactivity biodistribution, Muscle / Radioactivity biodistribution, Pancreas / Radioactivity biodistribution, Spleen / Radioactivity biodistribution, Stomach / Radioactivity biodistribution, Tumor / T/B (tumor to blood ratio): 37 kBq
Procedure: Female Balb/c nu-nu mice (5 weeks old, Japan SLC, Inc., Shizuoka, Japan) were housed under a 12-h light/12-h dark cycle and given free access to food and water. HT1080 cells (5×10^6 cells/100 μl PBS (-)/mouse) were subcutaneously inoculated into the right hind leg of Balb/c nu-nu mice. Animals were used for experiments two weeks after inoculation when the mean tumor size was 5.7±2.2 mm along the major axis. […]3000 and […] (37 kBq, 100 μl in PBS including 3% bovine serum albumin and 0.1% Tween 80) were injected intravenously into the tail vein of tumor bearing mice. The mice were sacrificed at various post-injection time points (n = 3 for each time point), and the organs of interest including the tumor tissues were collected for determination of the weights. The radioactivity of each sample was measured with a NaI well-type scintillation counter. From fitting to the two phase decay curves for blood radioactivity data analyzed by GraphPad Prism 6 (GraphPad Software, San Diego, CA), whole body pharmacokinetic parameters such as blood half-lives, distribution volume, mean residence time and total clearance were calculated for each of the probes and the values compared. Simple pharmacokinetic analysis using a single tissue compartment model was applied to the biodistribution data to calculate rate constants (K1 and k2) for radioactivity transfer from blood to tumor and clearance from tumor to blood by PMOD version 3.2. In addition, MDAP3000 (7.4 MBq in 200 μl) was injected intravenously into the tail vein of tumor bearing mice for metabolite analysis in tumors excised 3, 6, and 24 hr post injection (n = 2 each). Tumor homogenates were prepared on ice and insoluble material was removed by centrifugation after methanol treatment. The resulting supernatant was analyzed by RP-HPLC.

[2] = test system: HT1080 tumor bearing mice; conditions: mouse, in vivo, iv
Procedure: (§1) […]3000 and […] (37 kBq, 100 μl in PBS including 3% bovine serum albumin and 0.1% Tween 80) were injected intravenously into the tail vein of tumor bearing mice. The mice were sacrificed at various post-injection time points (n = 3 for each time point), and the organs of interest including the tumor tissues were collected for determination of the weights. The radioactivity of each sample was measured with a NaI well-type scintillation counter. From fitting to the two phase decay curves for blood radioactivity data analyzed by GraphPad Prism 6 (GraphPad Software, San Diego, CA), whole body pharmacokinetic parameters such as blood half-lives, distribution volume, mean residence time and total clearance were calculated for each of the probes and the values compared. Simple pharmacokinetic analysis using a single tissue compartment model was applied to the biodistribution data to calculate rate constants (K1 and k2) for radioactivity transfer from blood to tumor and clearance from tumor to blood by PMOD version 3.2. In addition, MDAP3000 (7.4 MBq in 200 μl) was injected intravenously into the tail vein of tumor bearing mice for metabolite analysis in tumors excised 3, 6, and 24 hr post injection (n = 2 each). Tumor homogenates were prepared on ice and insoluble material was removed by centrifugation after methanol treatment. The resulting supernatant was analyzed by RP-HPLC.

HT1080 tumor xenograft = conditions: mouse, in vivo, iv
Procedure: as §1

**Q.** What does the source list for “Palmitoyl-Dap(p-SCN-Bn-DTPA-^111In)-10-Adc-Gly-Pro-Leu-Gly-Val-Arg-Gly-Lys(ivDde)-PEG1000 [MDAP1000]”?
**A.** Blood clearance (in words) [1]: rapid blood clearance; Tumor accumulation (in words) [1]: low tumor accumulation; Radioactivity biodistribution, Blood ([1]; 0.25 h): 46.93±5.71 % injected dose per gram; Radioactivity biodistribution, Heart ([1]; 0.25 h): 9.40±2.03 % injected dose per gram; Radioactivity biodistribution, Intestine ([1]; 0.25 h): 4.18±0.58 % injected dose per gram; Radioactivity biodistribution, Kidneys ([1]; 0.25 h): 14.24±1.90 % injected dose per gram; Radioactivity biodistribution, Liver ([1]; 0.25 h): 34.27±5.87 % injected dose per gram; Radioactivity biodistribution, Lung ([1]; 0.25 h): 21.23±2.65 % injected dose per gram; Radioactivity biodistribution, Muscle ([1]; 0.25 h): 2.15±0.57 % injected dose per gram; Radioactivity biodistribution, Pancreas ([1]; 0.25 h): 4.28±0.41 % injected dose per gram; Radioactivity biodistribution, Spleen ([1]; 0.25 h): 8.06±0.23 % injected dose per gram; Radioactivity biodistribution, Stomach ([1]; 0.25 h): 1.03±0.15 % injected dose per organ; Radioactivity biodistribution, Tumor ([1]; 0.25 h): 1.70±0.85 % injected dose per gram; T/B (tumor to blood ratio) ([1]; 0.25 h): 0.04±0.01; Radioactivity biodistribution, Blood ([1]; 1 h): 24.81±3.60 % injected dose per gram; Radioactivity biodistribution, Heart ([1]; 1 h): 8.43±1.19 % injected dose per gram; Radioactivity biodistribution, Intestine ([1]; 1 h): 8.97±0.28 % injected dose per gram; Radioactivity biodistribution, Kidneys ([1]; 1 h): 11.66±1.17 % injected dose per gram; Radioactivity biodistribution, Liver ([1]; 1 h): 42.27±8.44 % injected dose per gram; Radioactivity biodistribution, Lung ([1]; 1 h): 12.56±1.70 % injected dose per gram; Radioactivity biodistribution, Muscle ([1]; 1 h): 1.94±0.33 % injected dose per gram; Radioactivity biodistribution, Pancreas ([1]; 1 h): 5.52±1.05 % injected dose per gram; Radioactivity biodistribution, Spleen ([1]; 1 h): 7.72±1.86 % injected dose per gram; Radioactivity biodistribution, Stomach ([1]; 1 h): 1.13±0.21 % injected dose per organ; Radioactivity biodistribution, Tumor ([1]; 1 h): 1.90±0.38 % injected dose per gram; T/B (tumor to blood ratio) ([1]; 1 h): 0.08±0.02; Radioactivity biodistribution, Blood ([1]; 3 h): 10.58±1.28 % injected dose per gram; Radioactivity biodistribution, Heart ([1]; 3 h): 7.47±0.45 % injected dose per gram; Radioactivity biodistribution, Intestine ([1]; 3 h): 20.39±4.51 % injected dose per gram; Radioactivity biodistribution, Kidneys ([1]; 3 h): 10.56±1.49 % injected dose per gram; Radioactivity biodistribution, Liver ([1]; 3 h): 50.70±7.52 % injected dose per gram; Radioactivity biodistribution, Lung ([1]; 3 h): 6.17±0.88 % injected dose per gram; Radioactivity biodistribution, Muscle ([1]; 3 h): 2.00±0.38 % injected dose per gram; Radioactivity biodistribution, Pancreas ([1]; 3 h): 4.50±1.45 % injected dose per gram; Radioactivity biodistribution, Spleen ([1]; 3 h): 10.01±3.77 % injected dose per gram; Radioactivity biodistribution, Stomach ([1]; 3 h): 1.14±0.33 % injected dose per organ; Radioactivity biodistribution, Tumor ([1]; 3 h): 2.65±0.33 % injected dose per gram; T/B (tumor to blood ratio) ([1]; 3 h): 0.25±0.05; Radioactivity biodistribution, Blood ([1]; 6 h): 5.85±0.74 % injected dose per gram; Radioactivity biodistribution, Heart ([1]; 6 h): 5.71±0.61 % injected dose per gram; Radioactivity biodistribution, Intestine ([1]; 6 h): 13.23±3.92 % injected dose per gram; Radioactivity biodistribution, Kidneys ([1]; 6 h): 9.53±1.08 % injected dose per gram; Radioactivity biodistribution, Liver ([1]; 6 h): 30.08±5.98 % injected dose per gram; Radioactivity biodistribution, Lung ([1]; 6 h): 4.38±0.32 % injected dose per gram; Radioactivity biodistribution, Muscle ([1]; 6 h): 1.68±0.46 % injected dose per gram; Radioactivity biodistribution, Pancreas ([1]; 6 h): 5.53±1.77 % injected dose per gram; Radioactivity biodistribution, Spleen ([1]; 6 h): 10.00±2.61 % injected dose per gram; Radioactivity biodistribution, Stomach ([1]; 6 h): 0.73±0.06 % injected dose per organ; Radioactivity biodistribution, Tumor ([1]; 6 h): 3.18±0.69 % injected dose per gram; T/B (tumor to blood ratio) ([1]; 6 h): 0.55±0.15; Radioactivity biodistribution, Blood ([1]; 24 h): 5.26±0.94 % injected dose per gram; Radioactivity biodistribution, Heart ([1]; 24 h): 4.11±0.44 % injected dose per gram; Radioactivity biodistribution, Intestine ([1]; 24 h): 4.90±0.90 % injected dose per gram; Radioactivity biodistribution, Kidneys ([1]; 24 h): 7.01±0.45 % injected dose per gram; Radioactivity biodistribution, Liver ([1]; 24 h): 8.89±1.11 % injected dose per gram; Radioactivity biodistribution, Lung ([1]; 24 h): 2.63±0.28 % injected dose per gram; Radioactivity biodistribution, Muscle ([1]; 24 h): 1.55±0.13 % injected dose per gram; Radioactivity biodistribution, Pancreas ([1]; 24 h): 6.21±3.76 % injected dose per gram; Radioactivity biodistribution, Spleen ([1]; 24 h): 4.82±1.10 % injected dose per gram; Radioactivity biodistribution, Stomach ([1]; 24 h): 0.49±0.09 % injected dose per organ; Radioactivity biodistribution, Tumor ([1]; 24 h): 3.33±0.44 % injected dose per gram; T/B (tumor to blood ratio) ([1]; 24 h): 0.65±0.15; Blood half-life, Fast [2]: 4.0×10 min; Blood half-life, Slow [2]: 43.3 h; Clearance (total clearance) [2]: 0.0083 mL/min; Distribution volume [2]: 1.71 mL; Mean residence time [2]: 210 min; K1, rate constant for transfer from blood to tumor, Mean (HT1080 tumor xenograft): 0.00071 mL/g/min; k2, rate constant for clearance from tumor to blood, Mean (HT1080 tumor xenograft): 0.0011 min⁻¹
